According to patent US9688764B2, “Methods of treating breast cancer by administering anti-human prolactin receptor (PRLR) antibodies” (REGENERON PHARMACEUTICALS, INC., priority 2013, dated 2017):
Substitutions are numbered along the chain they refer to.

T1: T47D (native PRLR expressing cell line) (Homo sapiens, UniProt P16471)
T1 construct: a native PRLR expressing cell line (T47D); endogenous in cells; host or cells: T47D
T1 sequence (P16471 25-622): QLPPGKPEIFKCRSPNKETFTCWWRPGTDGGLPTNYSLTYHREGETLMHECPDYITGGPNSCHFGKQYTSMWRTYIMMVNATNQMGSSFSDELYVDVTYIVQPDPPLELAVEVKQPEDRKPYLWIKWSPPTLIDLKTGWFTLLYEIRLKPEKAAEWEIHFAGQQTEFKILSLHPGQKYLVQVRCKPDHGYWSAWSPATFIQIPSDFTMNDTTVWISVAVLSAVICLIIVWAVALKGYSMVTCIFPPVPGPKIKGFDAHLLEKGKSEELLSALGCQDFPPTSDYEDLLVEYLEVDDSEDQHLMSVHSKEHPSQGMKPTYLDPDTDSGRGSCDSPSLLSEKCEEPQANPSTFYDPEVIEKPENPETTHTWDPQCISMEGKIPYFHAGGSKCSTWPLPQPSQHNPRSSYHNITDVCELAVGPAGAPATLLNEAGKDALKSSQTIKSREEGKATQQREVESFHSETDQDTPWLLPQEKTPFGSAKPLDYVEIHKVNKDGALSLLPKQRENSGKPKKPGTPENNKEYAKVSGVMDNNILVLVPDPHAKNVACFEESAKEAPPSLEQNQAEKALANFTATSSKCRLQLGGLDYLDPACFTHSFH

T2: HEK293/mPRLR (Mus musculus, UniProt Q08501)
T2 construct: HA; expressed in transfected cells; host or cells: HEK293
T2 sequence (Q08501 20-608): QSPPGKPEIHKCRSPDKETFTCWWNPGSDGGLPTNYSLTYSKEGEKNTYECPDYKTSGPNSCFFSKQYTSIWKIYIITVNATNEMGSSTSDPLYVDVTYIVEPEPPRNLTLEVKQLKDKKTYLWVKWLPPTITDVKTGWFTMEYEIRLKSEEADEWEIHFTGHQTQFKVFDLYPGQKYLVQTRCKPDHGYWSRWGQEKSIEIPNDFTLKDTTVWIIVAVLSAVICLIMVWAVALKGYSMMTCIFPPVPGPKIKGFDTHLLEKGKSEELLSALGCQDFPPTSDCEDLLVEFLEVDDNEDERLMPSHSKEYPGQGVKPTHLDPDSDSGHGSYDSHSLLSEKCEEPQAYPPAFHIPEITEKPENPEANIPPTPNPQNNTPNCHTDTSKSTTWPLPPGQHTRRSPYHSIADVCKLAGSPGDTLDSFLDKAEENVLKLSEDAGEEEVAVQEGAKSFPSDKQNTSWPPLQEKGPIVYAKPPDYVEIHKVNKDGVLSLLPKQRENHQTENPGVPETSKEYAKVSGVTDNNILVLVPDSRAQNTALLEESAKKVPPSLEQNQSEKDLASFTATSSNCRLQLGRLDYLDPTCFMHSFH

B1: H1H6793P: anti-PRLR antibody, human IgG1 Fc; HCVR/LCVR SEQ ID NOs 146/154 (antibody, V domains shown)
VH: EVQLVESGGGLVQPGGSLRLSCAASGFSFSIYAMSWFRQAPGKGLEWVSAINGRGDGTHYADSVKGRFTISRDNSKTTLYLQMSSLRAEDTAVYYCAKPVMSTNGFDIWGQGTMVTVSS
VL: DIQMTQSPSTLSASVGDRVTITCRASQSISSWLAWYQLKPGKAPKLLIYKASNLESGVPSRFSGSGSGTEFTLTISSLQPDDFATYYCQQYNIYWTFGQGTKVEIK
modifications: human IgG1 Fc
B2: H1H6782P: anti-PRLR antibody, human IgG1 Fc; HCVR/LCVR SEQ ID NOs 66/74; non-blocking (antibody, V domains shown)
VH: EVQLVESGGGLVQPGRSLRLSCAASGFTFDDYAMHWVRQAPGKGLEWVSGIIWNSGHIGYGDSVKGRFTISRDNAKKSLYLQMNSLRAEDTALYYCARDSGRYQSYFDYWGQGTLVTVSS
VL: DIQMTQSPSTLSASVGDRVTITCRASHIISSWLAWYQQKPGKAPKVLIFKASSLESGVPSRFSGSGSGTEFTLTISSLQPDDFATYYCQQYNTYSRTFGQGTKVEIK
modifications: human IgG1 Fc
B3: H1H6790P: anti-PRLR antibody, human IgG1 Fc; HCVR/LCVR SEQ ID NOs 114/122 (antibody, V domains shown)
VH: EVQLVESGGGLVQPGGSLRLSCAASGFTFSSYAMTWVRQAPGKGLEWVSAITGSVGNTYYADSVKGRFTISRDNSKNTLYLQMNSLGAEDTAEYYCAKGAGMTTNWYLDLWGRGTLVTVSS
VL: DIVMTQSPDSLAVSLGARATINCKSSQSVLYSSNNQNYLTWYQQKPGQPPKLLIKWASTRESGVPDRFSGSGSGTDFTLTISSLQAEDVAVYYCQQYASSPYTFGQGTKLEIK
modifications: human IgG1 Fc
B4: H1H6792P: anti-PRLR antibody, human IgG1 Fc; HCVR/LCVR SEQ ID NOs 130/138 (antibody, V domains shown)
VH: EVQLVESGGGLVQPGRSLRLSCAASGFTLDDHAVHWVRQAPGKGLEWVSGISWNSVYIDYADSVKGRFTIFRDNAKNSLYLQMNSLRAEDTAFYYCARDIEGARDYWGQGTLVTVSS
VL: DIQMTQSPSSLSASVGDRVTITCRASQGIRNDLGWYQQKPGKAPKRLIYAASSLQSGVPSRFSGSGYGTEFTLTISSLQPEDFAPYYCLQHNSYPLTFGGGTKVEIK
modifications: human IgG1 Fc
B5: H1H6795P: anti-PRLR antibody, human IgG1 Fc; HCVR/LCVR SEQ ID NOs 162/170 (antibody, V domains shown)
VH: QVQLVQSGAEVKKPGASVKVSCKASGYTFGTSGITWVRQAPGQGLEWMGWSSAYNGKTDYAQKFQDRVTMTTDTSTTTGYMEMRSLTSDDTAVYYCTTVVRRPFDFWGQGTLVTVSS
VL: DIQMTQSPSSLSASVGDRVTITCRASQDINNFLAWFQQKPGKAPKSLIYAASSLQSGVPSKFSGGGSGTDFALTISSLQPEDFATYYCQQYSSYPITFGQGTRLEIK
modifications: human IgG1 Fc
B6: H1H6797P: anti-PRLR antibody, human IgG1 Fc; HCVR/LCVR SEQ ID NOs 178/186 (antibody, V domains shown)
VH: EVQLVESGGGLVQPGGSLRLSCIVSGFTFSGSWMSWVRQLPGKGLEWVANIKEDGSDSYYVDSVEGRFTISRDNAKSSLYLQMNSLRVDDTAVYFCARARTVPLHYWGQGTLVTVSS
VL: DIQMTQSPSTLSASVGDRVTITCRASQSINIWLAWYQQKPGKAPKLLIYRASYLESGVPSSFAGGGSGTEFTLTISSLQPDDFGTYYCQHYNSYPFTFGQGTKLEIK
modifications: human IgG1 Fc
B7: H1H6774P: anti-PRLR antibody, human IgG1 Fc; HCVR/LCVR SEQ ID NOs 34/42 (antibody, V domains shown)
VH: EVQLVESGGGLAQPGGSLRLSCVASGFTFSTYWMSWVRQAPGKGLDWVGNIKQDGSEQNYVDSVRGRFTISRDNAKNSLFLQMNSLRAEDTGVYYCATLLTKGDYWGQGTLVTVSS
VL: DIQMTQSPSSLSASVGDSVTITCRASQDISNYLDWFQQKPGKAPKSLIYAASILQGGVPSRFSGSGYGTDFTLTISSLQPEDFATYYCRQYKTYPFTFGPGTKVDIK
modifications: human IgG1 Fc
B8: H1H6781P: anti-PRLR antibody, human IgG1 Fc; HCVR/LCVR SEQ ID NOs 50/58 (antibody, V domains shown)
VH: EVQLVESGGDLVQPGESLRLSCTASGFTFNSYEMNWVRQAPGKGLEWVSYISSSGGTKYYVDSVKGRFTISRDNAKKSLYLQMNSLRADDTALYYCARLNGVDVFDIWGQGTMVTVSS
VL: DIQMTQSPSSLSASVGDRVTITCRASQDIFNYLAWFQQKPGKVPELLISAASTLQSGVPSRFSGSGSGTYFTLTISSLQPEDIATYYCQRYNSAPLTFGGGTKVEIK
modifications: human IgG1 Fc
B9: H1H6785P: anti-PRLR antibody, human IgG1 Fc; HCVR/LCVR SEQ ID NOs 98/106 (antibody, V domains shown)
VH: EVQLVESGGGLVQPGGSLRLSCAASGFTFSSYEMNWVRQAPGKGLEWISYISSRGGTIYYADSIKGRFTIYRDNARNSLYLQMNSLRAEDTAIYYCARLSGVDIFDIWGQGTMVTVSS
VL: B8 VL with D28G, F30S, F36Y, E45K, S49Y, A50F, S65G, Y70D, I83V
modifications: human IgG1 Fc

Target: T1, T47D (native PRLR expressing cell line)
Experiment: FACS cell surface binding
Conditions: not given
Procedure, shortened: (§1)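 HEK293 lines stably expressing HA-tagged human, cynomolgus or mouse PRLR, native-expressing T47D and parental HEK293 tested by flow cytometry. Cells (1×10^5) stained with primary antibody 30 min on ice, then PE anti-human secondary; MFI expressed as fold over isotype control.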

FACS Cell Binding (Fold Above Background)	Molecule
43	B1
43	B2
34	B3
37	B4
34	B5
38	B6
39	B7
40	B8
40	B9

Target: T2, HEK293/mPRLR
Experiment: FACS cell surface binding
Conditions: not given
Procedure, shortened: as §1

FACS Cell Binding (Fold Above Background)	Molecule
2	B1
4	B2
1	B3
3	B4
1	B5
2	B6
1	B7
1	B8
2	B9

Tested on: HEK293/hPRLR/STAT5-Luc cells (human PRLR)
Experiment: STAT5-Luc luciferase reporter assay, blocking of PRL-mediated receptor activation
Assay type: cell-based
Conditions: 5 nM constant PRL, 6 hr at 37° C.
Text: The ability of anti-PRLR antibodies to block prolactin (PRL)-mediated receptor activation was examined in a luciferase-based reporter assay. The endocrine hormone PRL binds to the extracellular domain of its cognate receptor PRLR, triggering rapid homodimerization and activating several downstream signaling cascades.
In this example, an engineered cell line was used to determine the ability of anti-PRLR antibodies to block ligand activation of the PRLR receptor. Briefly, HEK293/hPRLR/STAT5-Luc cell lines with stable incorporation of a human PRLR expression cassette and the STAT5-dependent luciferase reporter were generated via sequential rounds of Lipofectamine® 2000-mediated transfection (LifeTechnologies, Carlsbad, Calif.). Cells were selected for at least two weeks in the presence of 500 μg/mL G418 (hPRLR) and 100 μg/mL hygromycin B (STAT5-Luc). The STAT5-Luc assay utilized 2×10^5 HEK293/hPRLR/STAT5-Luc cells seeded in complete growth medium on PDL-coated 96 well plates grown overnight at 37° C., 5% CO2. To generate antibody inhibition curves, cells were incubated (6 hr at 37° C.) with serially diluted anti-human PRLR antibodies (100 nM to 24 pM) in the presence of 5 nM constant PRL before recording signal. PRL dose response curves were generated by the addition of serially diluted PRL (100 nM to 24 pM) to cells and recording signal after a 6 hr (37° C.) incubation in the absence of antibodies. The ability of the antibodies to activate PRLR in the absence of ligand was also assessed.
Luciferase activity was measured with ONE-GLO™ reagent (Promega, Madison, Wis.). Relative light units (RLUs) were measured on a Victor luminometer (Perkin Elmer, Shelton, Conn.). EC50/IC50 values were determined from a four-parameter logistic equation over an 8-point response curve using GraphPad Prism. Percent blocking and percent activation are reported for the highest antibody dose.

Molecule	IC50 [pM]
B2	> 100000
B3	206
B4	570
B8	27
B9	345

Same assay, conditions: 100 nM antibody, 5 nM PRL

Molecule	Percent Blocking at 100 nM Antibody [%]
B1	65
B2	0
B3	100
B4	100
B5	0
B6	0
B7	0
B8	100
B9	100
